According to patent US20230158141A1 (YAFEI SHANGHAI BIOLOG MEDICINE SCIENCE AND TECHNOLOGY, published 2023):

What was measured:
[1] = biological target: mouse CTLA-4 protein (mouse, UniProt P09793 36-162, limits assumed); test: ELISA, TMEAbody against WT 9D9
[2] = biological target: His tagged VEGF protein (UniProt P15692-4 27-191, limits assumed); test: ELISA, His tagged VEGF protein
[3] = biological target: T1, IL2Rβ-Fc (UniProt P14784 27-239, limits assumed); test: ELISA, against wild type IL2
T1 construct: also called IL2Rb; not shown: Fc part, not described
T1 sequence (looked up): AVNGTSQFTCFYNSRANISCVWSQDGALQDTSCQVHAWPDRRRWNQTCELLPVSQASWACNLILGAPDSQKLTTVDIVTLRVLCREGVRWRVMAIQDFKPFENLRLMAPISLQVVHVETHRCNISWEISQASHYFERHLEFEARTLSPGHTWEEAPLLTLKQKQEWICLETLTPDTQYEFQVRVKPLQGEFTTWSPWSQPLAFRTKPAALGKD

[4] = biological target: PD-1 (UniProt Q15116 25-167, limits assumed); test: ELISA, OD mutant/OD WT; ↓=less than 70%
[5] = biological target: T2, mouse PD-1 protein (mouse, UniProt Q02242 25-167, limits assumed); test: ELISA, TMEAbody against WT J43v2
T2 sequence (looked up): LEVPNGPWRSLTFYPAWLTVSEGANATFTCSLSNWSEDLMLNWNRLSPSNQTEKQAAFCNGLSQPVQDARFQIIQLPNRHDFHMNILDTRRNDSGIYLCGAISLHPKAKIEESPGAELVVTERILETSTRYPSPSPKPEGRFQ

Chain of His tagged VEGF protein (P15692 other isoform, or with tags, fused parts or gaps limits assumed): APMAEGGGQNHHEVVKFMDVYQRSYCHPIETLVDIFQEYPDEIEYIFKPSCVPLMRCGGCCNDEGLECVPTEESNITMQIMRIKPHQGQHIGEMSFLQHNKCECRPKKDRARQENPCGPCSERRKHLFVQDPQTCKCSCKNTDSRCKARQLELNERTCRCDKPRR
Chain of PD-1 (Q15116 25-167 limits assumed): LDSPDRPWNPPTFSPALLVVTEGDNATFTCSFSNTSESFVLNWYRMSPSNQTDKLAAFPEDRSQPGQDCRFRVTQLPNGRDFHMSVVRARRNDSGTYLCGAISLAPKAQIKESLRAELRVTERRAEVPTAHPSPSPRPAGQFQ

B1: 9D9 TMEAbody (anti-mouse CTLA-4 antibody 9D9, Tyr54 on LC) (antibody, mouse IgG2b, kappa)
heavy: EAKLQESGPVLVKPGASVKMSCKASGYTFTDYYMNWVKQSHGKSLEWIGVINPYNGDTSYNQKFKGKATLTVDKSSSTAYMELNSLTSEDSAVYYCARYYGSWFAYWGQGTLITVSTAKTTPPSVYPLAPGCGDTTGSSVTLGCLVKGYFPESVTVTWNSGSLSSSVHTFPALLQSGLYTMSSSVTVPSSTWPSQTVTCSVAHPASSTTVDKKLEPSGPISTINPCPPCKECHKCPAPNLEGGPSVFIFPPNIKDVLMISLTPKVTCVVVDVSEDDPDVQISWFVNNVEVHTAQTQTHREDYNSTIRVVSTLPIQHQDWMSGKEFKCKVNNKDLPSPIERTISKIKGLVRAPQVYILPPPAEQLSRKDVSLTCLVVGFNPGDISVEWTSNGHTEENYKDTAPVLDSDGSYFIYSKLNMKTSKWEKTDSFSCNVRHEGLKNYYLKKTISRSPGK
light: DIVMTQTTLSLPVSLGDQASISCRSSQSIVHSNGNTYLEWYLQKPGQSPKLLICKVSNRFSGVPDRFSGSGSGTDFTLKISRVEAEDLGVYYCFQGSHVPYTFGGGTKLEIKRADAAPTVSIFPPSSEQLTSGGASVVCFLNNFYPKDINVKWKIDGSERQNGVLNSWTDQDSKDSTYSMSSTLTLTKDEYERHNSYTCEATHKTSTSPIVKSFNRNEC
modifications: functional moiety on Cys 54 (which R1-R2-R3-R4 is not stated)
notes: mIgG2b isotype
With B1 the “blocking efficiency (fold)” value [1] was 26 fold.

B2: Beva-se001 conjugated to S47 (antibody, human IgG1, kappa, V domains shown)
VH: EVQLVESGGGLVQPGGSLRLSCAASGYTFTNYGMNWVRQAPGKGLEWVGWINTYTGEPTYAADFCRRFTFSLDTSKSTAYLQMNSLRAEDTAVYYCAKYPHYYGSSHWYFDVWGQGTLVTVSS
VL: DIQMTQSPSSLSASVGDRVTITCSASQDISNYLNWYQQKPGKAPKVLIYFTSSLHSGVPSRFSGSGSGTDFTLTISSLQPEDFATYYCQQYSTVPWTFGQGTKVEIKR
modifications: S47 on Cys 65
notes: Bevacizumab mutant
For B2, the “Blocking efficiency of S47” value [2] was 9 fold.

B3: chemically modified IL2 Arg38Asp/Glu61Arg with Lys9 and Lys76 conjugated with R4-7 (other)
chain: APASSTKCTQLQLEHLLLDLQMILNGINNYKNPKLTDMLTFKFYMPKKATELKHLQCLERELKPLEEVLNLAQSCNFHLRPRDLISNINVIVLELKGSETTFMCEYADETATIVEFLNRWITFSQSIISTLT
modifications: R4-7 on Cys 9 and Cys 76
notes: also called a new chemically modified IL2
B3 was tested, and the “fold increase of binding” value [3] was 1.35 fold.

B4: anti-PD-1 antibody 2 light chain Y32C (antibody, human IgG4 S228P, kappa, V domains shown)
VH: QVQLVESGGGVVQPGRSLRLDCKASGITFSNSGMHWVRQAPGKGLEWVAVIWYDGSKRYYADSVKGRFTISRDNSKNTLFLQMNSLRAEDTAVYYCATNDDYWGQGTLVTVSS
VL: EIVLTQSPATLSLSPGERATLSCRASQSVSSCLAWYQQKPGQAPRLLIYDASNRATGIPARFSGSGSGTDFTLTISSLEPEDFAVYYCQQSSNWPRTFGQGTKVEIKR
B4 was tested, and the “binding activity vs wild type” value [4] was < 70%.

B5: J43v2 TMEAbody (anti-mouse PD-1 antibody J43v2, Ser95 on LC) (antibody, mouse IgG2a, V domains shown)
VH: EVRLLESGGGLVKPEGSLKLSCVASGFTFSDYFMSWVRQAPGKGLEWVAHIYTKSYNYATYYSGSVKGRFTISRDDSRSMVYLQMNNLRTEDTATYYCTRDGSGYPSLDFWGQGTQVTVSS
VL: YELTQPPSASVNVGETVKITCSGDQLPKYFADWFHQRSDQTILQVIYDDNKRPSGIPERISGSSSGTTATLTIRDVRAEDEGDYYCFSGYVDSDCKLYVFGSGTQLTVLG
modifications: functional moiety on Cys 95 (which R1-R2-R3-R4 is not stated)
notes: Heavy chain re-formatted into mouse IgG2a
B5 was tested, and the “blocking efficiency (fold)” value [5] was 35 fold.
